# T1: Dishevelled (Dsh) protein, endogenous, from Drosophila embryos and Clone-8 cells
# T1 chain: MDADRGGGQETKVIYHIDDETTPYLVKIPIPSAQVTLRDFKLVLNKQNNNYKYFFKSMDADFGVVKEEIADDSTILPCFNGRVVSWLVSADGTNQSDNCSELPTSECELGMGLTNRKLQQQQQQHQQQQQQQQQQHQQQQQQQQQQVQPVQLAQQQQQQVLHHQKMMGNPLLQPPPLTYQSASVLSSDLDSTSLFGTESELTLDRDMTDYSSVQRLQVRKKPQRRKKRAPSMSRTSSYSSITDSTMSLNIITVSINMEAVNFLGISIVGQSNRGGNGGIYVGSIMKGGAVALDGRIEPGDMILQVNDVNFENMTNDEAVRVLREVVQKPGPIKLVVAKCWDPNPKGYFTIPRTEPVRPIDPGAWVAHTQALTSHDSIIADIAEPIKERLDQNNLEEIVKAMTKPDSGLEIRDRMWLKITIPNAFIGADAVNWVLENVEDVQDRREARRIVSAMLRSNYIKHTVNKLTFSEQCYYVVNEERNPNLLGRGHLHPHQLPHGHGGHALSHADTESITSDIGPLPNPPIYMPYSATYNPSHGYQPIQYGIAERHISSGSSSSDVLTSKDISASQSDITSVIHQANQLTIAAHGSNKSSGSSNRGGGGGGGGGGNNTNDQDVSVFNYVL
# T2: GST-DM5 (GST fusion of the 36 amino acid DM5 segment of Dsh, amino acids 214-249)
# T2 chain: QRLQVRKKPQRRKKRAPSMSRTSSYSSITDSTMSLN
# B1: Dishevelled Associated Kinase (DAK), endogenous kinase activity from Drosophila embryo and Clone-8 cell lysates (protein)
# chain: MSTAMRTTLQSVPEALPADSVSNGTASNVAAPAAPVSSATNAVPPLAAVSSTTATYATNSISTSSHSVKDQQQQQQQQQHDSANANIVSLPPTTTPVANTNTMMPIVTSSNSATSNSTAATPTPASGAAATGGVGSVSQGPATVSASAANTNHSHQHSHQHHHHVANNMTTDGARLSSNNSAVVASSAINHHHHHTPGSGVAPTVNKNVLSTHSAHPSAIKQRTSSAKGSPNMQMRSSAPMRWRATEEHIGKYKLIKTIGKGNFAKVKLAKHLPTGKEVAIKIIDKTQLNPGSLQKLFREVRIMKMLDHPNIVKLFQVIETEKTLYLIMEYASGGEVFDYLVLHGRMKEKEARVKFRQIVSAVQYCHQKRIIHRDLKAENLLLDSELNIKIADFGFSNEFTPGSKLDTFCGSPPYAAPELFQGKKYDGPEVDVWSLGVILYTLVSGSLPFDGSTLRELRERVLRGKYRIPFYMSTDCENLLRKFLVLNPAKRASLETIMGDKWMNMGFEEDELKPYIEPKADLADPKRIEALVAMGYNRSEIEASLSQVRYDDVFATYLLLGRKSTDPESDGSRSGSSLSLRNISGNDAGANAGSASVQSPTHRGVHRSISASSTKPSRRASSGAETLRVGPTNAAATVAAATGAVGAVNPSNNYNAAGSAADRASVGSNFKRQNTIDSATIKENTARLAAQNQRPASATQKMLTTADTTLNSPAKPRTATKYDPTNGNRTVSGTSGIIPRRSTTLYEKTSSTEKTNVIPAETKMASAVKSSRHFPRNVPSRSTFHSGQTRARNNTALEYSGTSGASGDSSHPGRMSFFSKLSSRFSKRPNQ
# How the values were obtained:
# [1] = target: T1, Dishevelled (Dsh) protein, endogenous, …
# [2] = target: T2, GST-DM5 (GST fusion of the 36 amino …)
protein,measurement,setting,value
B1,in vitro kinase assay of Dsh immunoprecipitates,[1],Immunoprecipitated Dsh was phosphorylated in this assay.
same,in-gel kinase assay,[2],A polypeptide of 110 kDa appeared to account for the major DAK activity and two polypeptides of approximately 125 and 64 kDa appeared to represent minor activity.

# Source: patent publication US20040005688
